From publication PMC5775921 (Chemical biology & drug design, 2017)
Ends that are not written are not given here.

Legend:
HER3 = HER3 (UniProt P21860); test: SPR
[1] = biological target: recombinant extracellular domain of EGFR protein (Homo sapiens, UniProt P00533); test: SPR binding to immobilized EGFR extracellular domain; conditions: peptide 0 to 200 μM as analyte

Sequence of HER3 (P21860 20-1342): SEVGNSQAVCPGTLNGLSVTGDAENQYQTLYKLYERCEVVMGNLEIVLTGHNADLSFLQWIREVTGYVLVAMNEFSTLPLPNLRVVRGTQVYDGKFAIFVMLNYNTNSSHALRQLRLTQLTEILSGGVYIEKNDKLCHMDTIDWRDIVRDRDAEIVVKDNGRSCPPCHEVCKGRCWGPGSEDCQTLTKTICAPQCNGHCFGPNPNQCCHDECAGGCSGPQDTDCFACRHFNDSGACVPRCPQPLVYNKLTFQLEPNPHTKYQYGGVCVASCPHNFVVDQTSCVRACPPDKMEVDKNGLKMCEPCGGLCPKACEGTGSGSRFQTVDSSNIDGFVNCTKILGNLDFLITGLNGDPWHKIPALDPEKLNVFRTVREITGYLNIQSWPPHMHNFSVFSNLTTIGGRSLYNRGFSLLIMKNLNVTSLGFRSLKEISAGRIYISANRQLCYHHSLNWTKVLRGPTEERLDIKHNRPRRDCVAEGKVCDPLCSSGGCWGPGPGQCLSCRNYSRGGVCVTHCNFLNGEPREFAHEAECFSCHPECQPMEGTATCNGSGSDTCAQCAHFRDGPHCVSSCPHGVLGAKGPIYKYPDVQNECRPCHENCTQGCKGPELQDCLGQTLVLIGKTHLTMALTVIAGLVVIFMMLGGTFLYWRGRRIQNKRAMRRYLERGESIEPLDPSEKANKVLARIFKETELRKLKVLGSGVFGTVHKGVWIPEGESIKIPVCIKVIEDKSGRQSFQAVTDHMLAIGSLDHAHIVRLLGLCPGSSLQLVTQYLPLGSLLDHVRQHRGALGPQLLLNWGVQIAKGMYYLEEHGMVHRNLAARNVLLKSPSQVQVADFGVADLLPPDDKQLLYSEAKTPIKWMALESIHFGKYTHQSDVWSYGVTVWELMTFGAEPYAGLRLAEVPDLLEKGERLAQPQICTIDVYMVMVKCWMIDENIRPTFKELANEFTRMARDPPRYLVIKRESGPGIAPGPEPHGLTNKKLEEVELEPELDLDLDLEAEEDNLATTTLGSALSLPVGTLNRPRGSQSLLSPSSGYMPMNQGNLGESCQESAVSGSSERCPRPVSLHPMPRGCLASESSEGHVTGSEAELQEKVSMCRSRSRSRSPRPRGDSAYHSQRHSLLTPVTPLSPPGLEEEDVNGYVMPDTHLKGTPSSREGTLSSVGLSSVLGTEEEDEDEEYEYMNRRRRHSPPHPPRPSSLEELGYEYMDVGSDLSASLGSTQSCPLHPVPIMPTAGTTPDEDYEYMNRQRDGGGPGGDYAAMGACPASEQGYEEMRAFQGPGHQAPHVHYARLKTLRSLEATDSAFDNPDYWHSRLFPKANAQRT

Row | Substance | Kd (HER3) [µM] | binding to EGFR as seen by SPR [1]
1 | Cyclo.L1.1: Cyclo(K(N3)larllt) (peptide) | 50 | 
2 | GLARLLT-CONH2 (GLARLLT-NH2) [Peptide L1.6] |  | exhibited binding to the EGFR protein in a concentration-dependent manner
3 | tllarl-CONH2 [Peptide L1.3] |  | exhibited binding to the EGFR protein in a concentration-dependent manner
